Reference: US20040171019A1, “PIN1 peptidyl-prolyl isomerase polypeptides, their crystal structures, and use thereof for drug design” (Agouron Pharmaceuticals, Inc., priority 2002, published 2004)

Target: 6His-PPIase domain of PIN1 (human) (UniProt Q13526)
Assay: fluorescence polarization competition; free Pintide displaces fluorescein-tagged Pintide from the 6His-PPIase domain of PIN1

Pintide (WFYpSPFLE) without the fluorescein tag (peptide)
IC50: 7 to 10 µM
